Data as given in publication PMC5610471, “Use of the KlADH3 promoter for the quantitative production of the murine PDE5A isoforms in the yeast Kluyveromyces lactis” (Microbial Cell Factories, 2017).

Key:
[1] = tested on: [H][C@@]12COP(=O)(O)O[C@@]1([H])[C@@H](O)[C@H](n1cnc3c(=O)[nH]c(N)nc31)O2; assay: purified protein; conditions: Mg2+ ([…] MgCl2 in the assay buffer)
PDE5A1 = molecular target: T1, PDE5A1 (Mus musculus, UniProt Q8CG03); assay: biochemical
T1 construct: gene Pde5a

Molecule	Km [1] [µM]	IC50 (PDE5A1) [nM]
PDE5A1 (Mus musculus)	1.08 ± 0.08	–
CCCc1nn(C)c2c(=O)[nH]c(-c3cc(S(=O)(=O)N4CCN(C)CC4)ccc3OCC)nc12 [Sildenafil]	–	4.7 ± 1.1
